B1: human mitochondrial poly(A) polymerase (mtPAP), wild type, residues 44-538 (enzyme, UniProt Q9NVV4 44-538, looked up)
chain: EQPSGSVETGFEDKIPKRRFSEMQNERREQAQRTVLIHCPEKISENKFLKYLSQFGPINNHFFYESFGLYAVVEFCQKESIGSLQNGTHTPSTAMETAIPFRSRFFNLKLKNQTSERSRVRSSNQLPRSNKQLFELLCYAESIDDQLNTLLKEFQLTEENTKLRYLTCSLIEDMAAAYFPDCIVRPFGSSVNTFGKLGCDLDMFLDLDETRNLSAHKISGNFLMEFQVKNVPSERIATQKILSVLGECLDHFGPGCVGVQKILNARCPLVRFSHQASGFQCDLTTNNRIALTSSELLYIYGALDSRVRALVFSVRCWARAHSLTSSIPGAWITNFSLTMMVIFFLQRRSPPILPTLDSLKTLADAEDKCVIEGNNCTFVRDLSRIKPSQNTETLELLLKEFFEYFGNFAFDKNSINIRQGREQNKPDSSPLYIQNPFETSLNISKNVSQSQLQKFVDLARESAWILQQEDTDRPSISSNRPWGLVSLLLPSAPNR
notes: human mitochondrial poly(A) polymerase (MTPAP, formerly PAPD1), residues 44-538, in pET28a; also called wild-type mtPAP; WT
B2: human mitochondrial poly(A) polymerase (mtPAP), p.N478D mutant, residues 44-538 (enzyme, UniProt Q9NVV4 44-538, looked up)
chain: EQPSGSVETGFEDKIPKRRFSEMQNERREQAQRTVLIHCPEKISENKFLKYLSQFGPINNHFFYESFGLYAVVEFCQKESIGSLQNGTHTPSTAMETAIPFRSRFFNLKLKNQTSERSRVRSSNQLPRSNKQLFELLCYAESIDDQLNTLLKEFQLTEENTKLRYLTCSLIEDMAAAYFPDCIVRPFGSSVNTFGKLGCDLDMFLDLDETRNLSAHKISGNFLMEFQVKNVPSERIATQKILSVLGECLDHFGPGCVGVQKILNARCPLVRFSHQASGFQCDLTTNNRIALTSSELLYIYGALDSRVRALVFSVRCWARAHSLTSSIPGAWITNFSLTMMVIFFLQRRSPPILPTLDSLKTLADAEDKCVIEGNNCTFVRDLSRIKPSQNTETLELLLKEFFEYFGNFAFDKNSINIRQGREQNKPDSSPLYIQDPFETSLNISKNVSQSQLQKFVDLARESAWILQQEDTDRPSISSNRPWGLVSLLLPSAPNR
notes: human mitochondrial poly(A) polymerase (MTPAP), residues 44-538, in pET28a, with the patient mutation p.N478D (c.1432A>G) made with the QuikChange kit; The mutation occurs in patients (spastic ataxia with optic atrophy); also called p.N478D mtPAP; mutant mtPAP

Biological target: the molecule itself
Assay: SEC; gel filtration analysis of wild-type and mutant mtPAP isolated to electrophoretic purity

Row | Protein | stoichiometry N
1 | B1 | 2
2 | B2 | 2

From article PMC4222368, “A human mitochondrial poly(A) polymerase mutation reveals the complexities of post-transcriptional mitochondrial gene expression” (Human Molecular Genetics, 2014)
